The supplement of paper PMC12764529
± gives the half width of the 95% confidence interval.

Assay: folding stability dG unfold from trypsin proteolysis; higher = more stable
Outline: (§1)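 Designed mini-proteins with no cysteine and under 80 residues were kept only if AlphaFold2 dimer inter-PAE was above 15. In a PA-tagged cDNA display construct, they were digested with trypsin and chymotrypsin and then sequenced. K50 was inferred by Bayesian fitting of counts, and unfolding free energy was derived per protease or combined against a sequence-predicted unfolded-state K50 and a shared folded-state K50.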

In order of rising “folding stability dG unfold” value:
1. SAGGSAGIEVHPEGTVRIEVGGRSLTVTPADAVDVTQEGDKIVVTITRRDADGTPVGTLPVTVELASAGGSA [r15_424_JUSTAS]  -0.75 ± 0.088 kcal/mol
2. SAGGSSSSTSTRIDPTTGEWVTSTSSFPVPPAPPYIEVRLDVPPEEAEALREKLLAEHPDLPVRLEASAGGS [r8_437_JUSTAS]  0.336 ± 0.023 kcal/mol
3. SAGGSAGGSASMTVVVEREEITRRDPSSDELFEEEVVRATTTEKDGVIETTTLPEEEWEKLSSAGGSAGGSA [r18_406_JUSTAS]  0.348 ± 0.056 kcal/mol
4. SAGGSAGGGIEPGKKVKAKATLILPGGKPIPFTATFTPDYVTLDLGKGSLTVPVEFIAHLEIEDSAGGSAGG [r6_132_TrMRF]  0.371 ± 0.052 kcal/mol
5. SAGGMSVTVSTHLSPEELRELVREIVEKNPGLEVKAVEVTDPATGEWRAVPLDEVPADRPVTVRVDLSRSAG [r5_357_JUSTAS]  0.506 ± 0.091 kcal/mol
6. SAGMPVTVTSTSDPENGSTTVPRTHPTGPVVTVTITKLPPGELRVTVDAGTTVTLYTLPPDALTTFTTPSAG [r5_14_JUSTAS]  0.51 ± 0.16 kcal/mol
7. SAGGSAGGSGVEITLPNKDELIEYLKKKFAEKGGKIKKIKIEPIGPNMYKALIETDPNDPYFKSAGGSAGGS [r12_647_TrMRF]  0.759 ± 0.069 kcal/mol
8. SAGGSAGGSAGGEPIPTKTIEVDEATGTVTVTVTFPPPNETVTVTRPAPPDVSLEEVLASAGGSAGGSAGGS [r10_676_JUSTAS]  1.07 ± 0.17 kcal/mol
9. SEPLTPEEVEKFAEWIAKELNEEHGKEVKVEVEYHPDDGYFRAEIEIPNGRRIEITFNPEFGQLDIEVEDSA [r9_9_TrROS]  1.31 ± 0.18 kcal/mol
10. SAGGMTLEELAARVGRVEVEEAEDGGRVLRVTIPLAGPGGPPAPRTFLIEIPPDRPDLTIAEVLARLGSAGG [r13_319_TrMRF]  1.38 ± 0.064 kcal/mol
11. GRMYIVKIEIKVKRRDPEEGETRERKLEVHVIFPPNDPDALEKADEIARNLAEEDGITDVKVKIYPIRLPDS [r1_346_TrROS]  1.48 ± 0.051 kcal/mol
12. SAGGSAGGGKSFSIPVDDAVILDYDPVTKRLTILLPGPGVELVLPLDKVKRIEIDPETGTIHVESAGGSAGG [r6_313_TrMRF]  1.54 ± 0.022 kcal/mol
13. SAGGSAGGPEIKVLEVRKLPDGSFEFIVEVPPGDAEKIKSGTVVKIKFGDKEYDVTVEVIPTEGSAGGSAGG [r6_372_TrMRF]  1.73 ± 0.038 kcal/mol
14. SAGGSAKKPKPVKYNVVITLKDGKTITLTLPFGSLEKAKEFIEKNFPDAIVTYNPKTGNVTVYLPVSAGGSA [r15_313_TrMRF]  1.87 ± 0.035 kcal/mol
15. SAGGSMTEEERRALAEEIAKEVAEKISEEEGIPVKEILSIEVHPDGSVTITIKFPGTEGERTITIPRSAGGS [r16_622_JUSTAS]  1.96 ± 0.067 kcal/mol
16. SAGGSASAEELAAELARRLAEELGLEVTKVEITEVTPDRVVVRVTVTVTLPNGEKVTRELTLVLEPSAGGSA [r15_276_TrROS_Hall]  2.16 ± 0.054 kcal/mol
17. SMTAEEIAERLARALEEAGIRRVEVEVTVEYDPETDEVTVTVTIRVEPAPEAPPEEEEERREREEREAEESA [r9_440_TrROS_Hall]  2.26 ± 0.057 kcal/mol
18. SMTLPANAKAKVTVLVLFYDPETGEATLVKVDYTATFKPDDKGNLVVEVEPSKIEFIGPISLEEAKKIAGSA [r9_423_TrMRF]  2.57 ± 0.15 kcal/mol
19. SAGWKIKLENIEFFPNGRIRVMFEIEDPNGRPWRVQAQFDPDNPGKIKIKVENPDNGQEQEITFTIKPPSAG [r5_345_TrROS]  3.15 ± 0.18 kcal/mol
20. SAGGSAGGMKTTTYTFPGTLEEAKALAEELVAALPPHAKEVTVEVTPDPATGTVTVTITVKELASAGGSAGG [r6_164_JUSTAS]  3.17 ± 0.19 kcal/mol
21. SAGGPDNIRIDLKIEPTGDSVKITFPIYNPNGSPIKVEMEYQRVGGKKFFRMKIEFGGRPIELWIPISAGGS [r16_476_TrROS]  3.4 ± 0.13 kcal/mol

Assay: folding stability dG unfold from chymotrypsin proteolysis; higher = more stable
Outline: as §1

In order of rising “folding stability dG unfold” value:
1. SAGGSAGGSASMTVVVEREEITRRDPSSDELFEEEVVRATTTEKDGVIETTTLPEEEWEKLSSAGGSAGGSA [r18_406_JUSTAS]  -0.521 ± 0.2 kcal/mol
2. SAGGSAGGSAGMKIEVFPNTIKIYPENGKVLTFEAPDFGEEAIKEIAKAFPNAKIEPVEPSAGGSAGGSAGG [r17_545_TrMRF]  -0.335 ± 0.16 kcal/mol
3. SAGGSPHVSTDAADPELAARLLREAFGTDEVPLVRRDPTTGALLAFLPATGRLVWTDRTTVRVEPSSAGGSA [r2_205_TrMRF]  -0.0869 ± 0.13 kcal/mol
4. SAGMPVTVTSTSDPENGSTTVPRTHPTGPVVTVTITKLPPGELRVTVDAGTTVTLYTLPPDALTTFTTPSAG [r5_14_JUSTAS]  0.13 ± 0.18 kcal/mol
5. SAGGPVFEVTPEVDPDTDLVTYTVRVPADVDFAAVAKALETEFADGSRAEVKPLPDGTVVVVVRLPASAGGS [r8_255_TrMRF]  0.307 ± 0.12 kcal/mol
6. SAGGMSVTVSTHLSPEELRELVREIVEKNPGLEVKAVEVTDPATGEWRAVPLDEVPADRPVTVRVDLSRSAG [r5_357_JUSTAS]  0.388 ± 0.12 kcal/mol
7. SAGGSAGGSAGGAPAAVESVEPLKIGDKEYLRITFPDGTTVTLPSSTPLSPDGQKLKPVPSAGGSAGGSAGG [r7_931_JUSTAS]  0.503 ± 0.031 kcal/mol
8. SAGGSAGGSGVEITLPNKDELIEYLKKKFAEKGGKIKKIKIEPIGPNMYKALIETDPNDPYFKSAGGSAGGS [r12_647_TrMRF]  0.532 ± 0.17 kcal/mol
9. SAGGSAGGSAGGIKDVKITEFERHPENNWYEVKISIPNGKPVEIPMNPGQSAEDILDQISAGGSAGGSAGGS [r10_984_TrROS]  0.651 ± 0.045 kcal/mol
10. SAGGSSSSTSTRIDPTTGEWVTSTSSFPVPPAPPYIEVRLDVPPEEAEALREKLLAEHPDLPVRLEASAGGS [r8_437_JUSTAS]  0.74 ± 0.029 kcal/mol
11. SAGGSAGIEVHPEGTVRIEVGGRSLTVTPADAVDVTQEGDKIVVTITRRDADGTPVGTLPVTVELASAGGSA [r15_424_JUSTAS]  0.835 ± 0.018 kcal/mol
12. SAGGSAGGSAGGMSITFTAPDGSKITATIDPDGNVLVEVHLGDKPYYVKGPVETLLKNAPSAGGSAGGSAGG [r7_178_TrMRF]  0.904 ± 0.1 kcal/mol
13. SAGSWIDKLPPSFTSSSPLAKRPDGTRVYAYEYTTESSPSILLVEFDASGRLRKIEKLDPETAAKAIAASAG [r5_73_JUSTAS]  1.14 ± 0.071 kcal/mol
14. SAGMTIEELRSLPPGARVTSVEYDEETEEVTVTVERTREDGKTETLTLTFRSREELEAALKAGADRIVFSAG [r5_905_TrROS_Hall]  1.16 ± 0.059 kcal/mol
15. SAGGSAGGGIEPGKKVKAKATLILPGGKPIPFTATFTPDYVTLDLGKGSLTVPVEFIAHLEIEDSAGGSAGG [r6_132_TrMRF]  1.48 ± 0.079 kcal/mol
16. SAGGTLEEFARDLAKELAKENGGKNVPFEIEIPVKMEWYPSPDGDPEPIMTHPMRIRIQFQIPPGQPSAGGS [r16_156_TrROS]  1.53 ± 0.14 kcal/mol
17. SAGGSAGGSAGGEPIPTKTIEVDEATGTVTVTVTFPPPNETVTVTRPAPPDVSLEEVLASAGGSAGGSAGGS [r10_676_JUSTAS]  1.58 ± 0.15 kcal/mol
18. SAGGSAGGGKSFSIPVDDAVILDYDPVTKRLTILLPGPGVELVLPLDKVKRIEIDPETGTIHVESAGGSAGG [r6_313_TrMRF]  1.61 ± 0.02 kcal/mol
19. SAGGSAGGSASMKEVTILVKKKLPGGEEEESVTTVTLNPNEIDKVKEEFKKKGWEVVKVVSSAGGSAGGSAG [r3_453_JUSTAS]  1.74 ± 0.034 kcal/mol
20. SAGGMTLEELAARVGRVEVEEAEDGGRVLRVTIPLAGPGGPPAPRTFLIEIPPDRPDLTIAEVLARLGSAGG [r13_319_TrMRF]  1.84 ± 0.057 kcal/mol
21. GRMYIVKIEIKVKRRDPEEGETRERKLEVHVIFPPNDPDALEKADEIARNLAEEDGITDVKVKIYPIRLPDS [r1_346_TrROS]  1.89 ± 0.073 kcal/mol
22. SAGGNINDIAKKLGLPPGGMIMIKDFSLEWHRMPMRVPEEDNDKPKEEKEVPMPMYKAEIKISLFPADSAGG [r13_482_TrROS]  2 ± 0.13 kcal/mol
23. SAGGSAGGSMNVPPGESVTVTVPPGTGLEWLRAQLPSSRTWDFATFVSENPSPPVTTYEITVGSAGGSAGGS [r12_469_JUSTAS]  2 ± 0.077 kcal/mol
24. SAGGSASVTTTVTLPNGEVVTITFDPANPTTATLSFPDGTTVTLSFSSPEEALARAIEELLAGKPLSAGGSA [r15_38_JUSTAS]  2.01 ± 0.056 kcal/mol
25. SMTLPANAKAKVTVLVLFYDPETGEATLVKVDYTATFKPDDKGNLVVEVEPSKIEFIGPISLEEAKKIAGSA [r9_423_TrMRF]  2.11 ± 0.058 kcal/mol
26. SEPLTPEEVEKFAEWIAKELNEEHGKEVKVEVEYHPDDGYFRAEIEIPNGRRIEITFNPEFGQLDIEVEDSA [r9_9_TrROS]  2.36 ± 0.062 kcal/mol
27. SAGGSMTEEERRALAEEIAKEVAEKISEEEGIPVKEILSIEVHPDGSVTITIKFPGTEGERTITIPRSAGGS [r16_622_JUSTAS]  2.38 ± 0.17 kcal/mol
28. SMTAEEIAERLARALEEAGIRRVEVEVTVEYDPETDEVTVTVTIRVEPAPEAPPEEEEERREREEREAEESA [r9_440_TrROS_Hall]  2.43 ± 0.09 kcal/mol
29. SAGGSAGGPEIKVLEVRKLPDGSFEFIVEVPPGDAEKIKSGTVVKIKFGDKEYDVTVEVIPTEGSAGGSAGG [r6_372_TrMRF]  2.52 ± 0.051 kcal/mol
30. SAGGSAGGMFYVVRLEGPDGPLRTLVRPAESLEEARAFAEALAPEGARVTVEPLEEEEAERLLGSAGGSAGG [r6_267_TrMRF]  2.54 ± 0.053 kcal/mol
31. SPVKWGEEKTYTYPFPDNPNYRIKIKVHVYKDPENGRPYVRMNIEVYNNGKPRKYNINMPVDQLKDLLQFSA [r9_71_TrROS]  2.66 ± 0.076 kcal/mol
32. SAGMLKVKIKIEIEKDGKKIELEKEIEAESEEELLKAAEELAKELEKKGIKIKKIEVEVEKIPEPEEEESAG [r5_660_TrROS_Hall]  2.77 ± 0.055 kcal/mol
33. SAGGSASAEELAAELARRLAEELGLEVTKVEITEVTPDRVVVRVTVTVTLPNGEKVTRELTLVLEPSAGGSA [r15_276_TrROS_Hall]  3.24 ± 0.12 kcal/mol
34. SAGGSAGGSAGGKKTINVEIVKIEVTKNKKTNEYTVKIYIKDTGKTITLTVKPGDIIKISAGGSAGGSAGGS [r10_819_TrROS_Hall]  3.28 ± 0.1 kcal/mol
35. SAGGSAGGSKTVEITITRKDGKKLKIEFYPDGYIKIYDSNGKLVKTIKVDPNASIEEILKALKSAGGSAGGS [r12_990_TrROS_Hall]  3.38 ± 0.038 kcal/mol
36. SAGGSAKKPKPVKYNVVITLKDGKTITLTLPFGSLEKAKEFIEKNFPDAIVTYNPKTGNVTVYLPVSAGGSA [r15_313_TrMRF]  3.543 ± 0.03 kcal/mol
37. SAGGSAGGMKTTTYTFPGTLEEAKALAEELVAALPPHAKEVTVEVTPDPATGTVTVTITVKELASAGGSAGG [r6_164_JUSTAS]  3.63 ± 0.064 kcal/mol
38. SAGGSAGGDPGDDYKIGVFPFTFLFGGYRISIPIFRITKDGKPQHIFMAIEIEPLPPPKDPGDNSAGGSAGG [r6_684_TrROS]  4 ± 0.087 kcal/mol
39. SAGWKIKLENIEFFPNGRIRVMFEIEDPNGRPWRVQAQFDPDNPGKIKIKVENPDNGQEQEITFTIKPPSAG [r5_345_TrROS]  4.13 ± 0.1 kcal/mol
40. SAGMTIELPNATVTLERVPVPATGESAWVVTVTARHPDGSTPTVVAVFPEDTPPEDVLAAALALAEELESAG [r5_704_TrMRF]  4.62 ± 0.075 kcal/mol
41. SAGGSAGGSYWFSITFKINFWVIDGNRIHPVPIEITILIKIPPIPPDEMKPEPTPDGEPKYDFSAGGSAGGS [r12_1031_TrROS]  4.64 ± 0.2 kcal/mol
42. SAGGPDNIRIDLKIEPTGDSVKITFPIYNPNGSPIKVEMEYQRVGGKKFFRMKIEFGGRPIELWIPISAGGS [r16_476_TrROS]  4.93 ± 0.094 kcal/mol
